We go through two molecules from patent US20240402174A1 (Takeda / Millennium, published 2024).

Usually EC50 stands for the concentration at which the effect is half-maximal. Higher therefore signals weaker potency.

Common to all, as to assay: multiplex microsphere immunoassay
In one assay the target is T1, GII.4/Den Haag VLP (norovirus Hu/GII.4/DenHaag89/2006/NL, UniProt P54635 1-539).
T1 construct: also called Hu/GII.4/DenHaag89/2006/NL
T1 chain: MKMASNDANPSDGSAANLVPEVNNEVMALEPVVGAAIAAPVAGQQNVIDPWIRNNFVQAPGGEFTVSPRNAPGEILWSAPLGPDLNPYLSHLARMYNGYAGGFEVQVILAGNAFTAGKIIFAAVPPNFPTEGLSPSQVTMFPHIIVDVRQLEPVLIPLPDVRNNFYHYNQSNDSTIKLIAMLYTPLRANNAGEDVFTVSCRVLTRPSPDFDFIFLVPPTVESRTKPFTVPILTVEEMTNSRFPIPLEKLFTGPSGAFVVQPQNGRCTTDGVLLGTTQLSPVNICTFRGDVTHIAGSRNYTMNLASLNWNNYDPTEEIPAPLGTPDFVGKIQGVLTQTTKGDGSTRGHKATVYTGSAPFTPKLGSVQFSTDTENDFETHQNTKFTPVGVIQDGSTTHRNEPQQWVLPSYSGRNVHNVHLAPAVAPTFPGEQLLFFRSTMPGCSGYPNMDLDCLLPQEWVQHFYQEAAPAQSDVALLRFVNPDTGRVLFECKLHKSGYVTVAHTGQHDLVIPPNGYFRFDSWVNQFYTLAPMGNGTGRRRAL

The target in another assay is T2, GII.4/Yerseke VLP (norovirus Hu/GII.4/Yerseke38/2006/NL, UniProt P54635 1-539).
T2 construct: also called Hu/GII.4/Yerseke38/2006/NL
T2 chain: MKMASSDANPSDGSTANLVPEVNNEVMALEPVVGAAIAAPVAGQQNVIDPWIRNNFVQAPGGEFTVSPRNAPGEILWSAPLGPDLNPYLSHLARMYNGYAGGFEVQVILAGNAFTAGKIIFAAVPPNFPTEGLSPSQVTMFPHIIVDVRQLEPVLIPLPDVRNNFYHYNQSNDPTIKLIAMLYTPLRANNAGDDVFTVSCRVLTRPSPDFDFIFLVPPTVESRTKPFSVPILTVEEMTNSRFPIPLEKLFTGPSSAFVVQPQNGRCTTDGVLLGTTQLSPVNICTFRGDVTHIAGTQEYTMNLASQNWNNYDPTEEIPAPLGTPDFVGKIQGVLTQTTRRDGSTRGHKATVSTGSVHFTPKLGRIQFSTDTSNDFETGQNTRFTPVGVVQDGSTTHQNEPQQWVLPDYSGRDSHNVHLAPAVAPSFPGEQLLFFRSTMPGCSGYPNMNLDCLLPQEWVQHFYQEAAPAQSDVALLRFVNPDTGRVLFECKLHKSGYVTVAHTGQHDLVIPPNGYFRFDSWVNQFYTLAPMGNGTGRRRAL

The next assay addresses T3, GII.2 VLP (norovirus Hu/GII.2/OH10026/2010/JP).
T3 chain: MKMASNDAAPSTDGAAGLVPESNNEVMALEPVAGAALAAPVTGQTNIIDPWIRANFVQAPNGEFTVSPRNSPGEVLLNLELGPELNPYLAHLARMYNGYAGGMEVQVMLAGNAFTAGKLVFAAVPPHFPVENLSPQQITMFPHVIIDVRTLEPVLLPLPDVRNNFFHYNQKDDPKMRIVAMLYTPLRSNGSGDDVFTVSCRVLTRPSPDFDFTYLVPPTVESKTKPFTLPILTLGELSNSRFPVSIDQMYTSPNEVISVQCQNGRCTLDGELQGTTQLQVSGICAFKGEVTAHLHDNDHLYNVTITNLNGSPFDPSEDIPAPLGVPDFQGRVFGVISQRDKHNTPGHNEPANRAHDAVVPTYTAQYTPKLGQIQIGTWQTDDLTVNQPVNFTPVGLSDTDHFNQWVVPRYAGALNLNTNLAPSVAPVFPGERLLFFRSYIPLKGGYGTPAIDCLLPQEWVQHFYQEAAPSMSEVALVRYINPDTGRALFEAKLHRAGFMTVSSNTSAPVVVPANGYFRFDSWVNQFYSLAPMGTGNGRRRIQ

The target in the next assay is T4, GII.17/2015 VLP (norovirus Hu/GII.17/HKG/2015/CUHK-NS-513).
T4 construct: also called Hu/GII.17/HKG/2015/CUHK-NS-513
T4 chain: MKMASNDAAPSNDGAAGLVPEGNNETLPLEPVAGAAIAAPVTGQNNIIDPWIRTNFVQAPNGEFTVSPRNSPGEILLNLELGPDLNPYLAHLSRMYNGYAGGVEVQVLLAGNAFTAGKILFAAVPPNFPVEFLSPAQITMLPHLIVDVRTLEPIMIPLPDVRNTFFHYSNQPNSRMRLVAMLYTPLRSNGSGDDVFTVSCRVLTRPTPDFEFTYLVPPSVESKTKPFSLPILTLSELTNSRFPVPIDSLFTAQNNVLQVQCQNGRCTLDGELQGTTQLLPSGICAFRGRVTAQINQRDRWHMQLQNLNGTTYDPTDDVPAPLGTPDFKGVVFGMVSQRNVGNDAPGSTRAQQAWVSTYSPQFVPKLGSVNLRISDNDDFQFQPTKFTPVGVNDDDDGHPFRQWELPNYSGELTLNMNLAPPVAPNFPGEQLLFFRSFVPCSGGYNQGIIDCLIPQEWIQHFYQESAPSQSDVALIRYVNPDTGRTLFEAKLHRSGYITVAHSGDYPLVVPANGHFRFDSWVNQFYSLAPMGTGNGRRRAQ

In another assay the target is T5, GII.7 VLP (norovirus Hu/GII.7/NSW088L/2007/AUS).
T5 construct: also called Hu/GII.7/NSW088L/2007/AUS
T5 chain: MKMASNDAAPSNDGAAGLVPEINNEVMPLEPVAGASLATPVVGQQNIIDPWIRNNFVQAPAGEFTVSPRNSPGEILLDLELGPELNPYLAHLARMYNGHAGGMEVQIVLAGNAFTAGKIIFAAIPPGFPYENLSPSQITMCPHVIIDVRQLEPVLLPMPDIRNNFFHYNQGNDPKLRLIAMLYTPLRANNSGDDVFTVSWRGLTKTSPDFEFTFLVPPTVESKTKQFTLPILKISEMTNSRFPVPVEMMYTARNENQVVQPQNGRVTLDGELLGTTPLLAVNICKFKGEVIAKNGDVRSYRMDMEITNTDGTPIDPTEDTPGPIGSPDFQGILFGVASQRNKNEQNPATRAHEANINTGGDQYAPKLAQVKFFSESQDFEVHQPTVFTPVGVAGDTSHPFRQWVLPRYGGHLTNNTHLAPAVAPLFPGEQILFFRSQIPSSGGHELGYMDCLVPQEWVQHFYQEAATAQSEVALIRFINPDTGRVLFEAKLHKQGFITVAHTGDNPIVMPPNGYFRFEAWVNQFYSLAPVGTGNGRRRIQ

B1: human mAb 1431 (antibody, V domains shown)
VH: QVQLVQSGGGLVQPGGSLRLSCAASGFAFSNHGMHWVRQAPGKGLEWLSYISGSTGAIHYANSVKGRFTISRDNARNSLDLQMNSLGDEDTAVYYCARDGPRPDGTGYAGPSNDYWGQGTLVSVSS
VL: EIVLTQSPASLSLSPGERATLSCKASRSISIYLAWYQQKPGQAPRLLIYDASYRAIGIPARFSGSGSGTDFTLTISNLEPEDFAVYYCQHRSSWPALTFGGGTKVEI
notes: also called A1431
Consider B1, for which the EC50 in the assay with GII.4/Den Haag VLP came to 0.024 µg/mL; with GII.4/Yerseke VLP, 0.007 µg/mL. Also, the binding result with GII.2 VLP, with GII.17/2015 VLP and in the assay with GII.7 VLP was “no binding” each time.

B2: human mAb 1227 (antibody, V domains shown)
VH: QVQLVQSGGGMVQPGGSLSLSCAASGFTLSNYAMTWVRQAPGKGLEWVSSIGGSGGTTYYADSVKGRFTISRDSSMNTLYLQMSNLRAGDTAVYYCAKDKTRTLRLGYSGMDVWGQGTTVTVSS
VL: DIRLTQSPSSLSASVGDRVTITCRASQSISSYLNWYQQKPGKAPDLLIYGASSLQSGVPSRFSGSGSGTDFTLTISSLQPEDFGNYYCQQSFSTPRTFGQGTKVEL
notes: also called A1227
In the case of B2, the concentration for a half-maximal effect (EC50) turned out to be 0.014 µg/mL with GII.4/Den Haag VLP; 0.002 µg/mL with GII.4/Yerseke VLP; 0.105 µg/mL with GII.2 VLP; 0.012 µg/mL with GII.17/2015 VLP; 0.009 µg/mL in the assay with GII.7 VLP.
